# Laboratory results reported in patent US20160068860A1, “TRANSGENIC PLANTS” (CONSEJO SUPERIOR DE INVESTIGACIONES CIENTIFICAS (CSIC), priority 2013, published 2016).
# B1: PYL4H82R V97A (AtPYL H82 and V97A) (receptor)
# chain: MLAVHRPSSAVSDGDSVQIPMMIASFQKRFPSLSRDSTAARFHTHEVGPNQCCSAVIQEISAPISTVWSVVRRFDNPQAYKRFLKSCSVIGGDGDNAGSLRQVHVVSGLPAASSTERLDILDDERHVISFSVVGGDHRLSNYRSVTTLHPSPISGTVVVESYVVDVPPGNTKEETCDFVDVIVRCNLQSLAKIAENTAAESKKKMSL
# notes: also called PYL4H82R (found combined with V97A)
# B2: PYL4A194T: AtPYL4 ABA receptor mutant polypeptide with A194T substitution (SEQ ID NO. 60; nucleic acid SEQ ID NO: 55); also over-expressed in plants (protein, listed as Arabidopsis thaliana)
# chain: MLAVHRPSSAVSDGDSVQIPMMIASFQKRFPSLSRDSTAARFHTHEVGPNQCCSAVIQEISAPISTVWSVVRRFDNPQAYKHFLKSCSVIGGDGDNVGSLRQVHVVSGLPAASSTERLDILDDERHVISFSVVGGDHRLSNYRSVTTLHPSPISGTVVVESYVVDVPPGNTKEETCDFVDVIVRCNLQSLAKITENTAAESKKKMSL
# Columns and labels:
# PP2CA [1] = assay: BiFC assay with PP2CA in N. benthamiana leaves; format: cell-based; conditions: no exogenous ABA
# Method: Experiments were performed basically as described by Voinnet et al., (2003). The different binary vectors described above where introduced into Agrobacterium tumefaciens C58C1 (pGV2260) (Deblaere et al., 1985) by electroporation and transformed cells were selected in LB plates supplemented with kanamycin (50 μg/ml). Then, they were grown in liquid LB medium to late exponential phase and cells were harvested by centrifugation and resuspended in 10 mM morpholinoethanesulphonic (MES) acid-KOH pH 5.6 containing 10 mM MgCl2 and […] acetosyringone to an OD600 nm of 1. These cells were mixed with an equal volume of Agrobacterium C58C1 (pCH32 35S:p19) expressing the silencing suppressor p19 of tomato bushy stunt virus (Voinnet et al., 2003) so that the final density of Agrobacterium solution was about 1. Bacteria were incubated for 3 h at room temperature and then injected into young fully expanded leaves of 4-week-old N. benthamiana plants. Leaves were examined after 3-4 days under a Leica TCS-SL confocal microscope and laser scanning confocal imaging system. Quantification of fluorescent protein signal was done as described (Gampala et al., 2007) using the National Institutes of Health (NIH) Image software ImageJ v1.37. […]
# [2] = system: Arabidopsis thaliana plants; assay: Water-loss assays of OE lines; format: in vivo; conditions: for water loss under drought stress: greenhouse, leaves detached after 11-d without irrigation
# Method: (§1) 2-3 weeks-old seedlings grown in MS plates were used for water-loss assays. Four seedlings per genotype with similar growth, three independent experiments, were submitted to the drying atmosphere of a flow laminar hood. Kinetic analysis of waterloss was performed and represented as the percentage of initial fresh weight loss at each scored time point. Stomatal aperture measurements were done in leaves of 5-week-old plants grown under greenhouse conditions using whole leaf imaging (Chitrakar and Melotto, 2010). Staining of whole leaves with propidium iodide was conducted and the aperture of 30-40 stomata (ratio width/length, two independent experiments) was measured using a Leica TCS-SL confocal microscope.
# Plants grown under greenhouse conditions (10 individuals per experiment, three independent experiments) were grown under normal watering conditions for 15 days and then subjected to drought stress by stopping irrigation during 20 days. Next, watering was resumed and survival rate was calculated after 3 days by counting the percentage of plants that had more than four green leaves. Photographs were taken at the start of the experiment (day 0), after 16 and 19 days of drought, and 3 days after rewatering. Shoot-growth and water-loss were measured as follows. Quantification of shoot-growth was performed at 2, 5, 7 and 9 d after stopping irrigation (day 0) by measuring the maximum rosette radius of the plants. Water-loss measurements were done in two leaves from each plant that were detached 11 d after the start of the experiment, next weighted, incubated in de-mineralized water for 3 h and weighed again. The difference in weight was considered as water loss and related to the initial fresh weight (μl H2O/g FW).
# PP2CA [3] = assay: Yeast two hybrid (Y2H) growth assay with PP2CA; format: cell-based, Arabidopsis; conditions: absence of ABA; growth on medium lacking His and Ade
# Method: We conducted error-prone PCR mutagenesis by amplification of the PYL4 open reading frame using the following primers: FPYL4Ncol, 5″-GCAGCAGCCATGGTTGCCG TTCACCGTCCTTCT and RPYL4EcoRIstop: […] TCT TCTTCTT, and the following conditions: 2 mM dGTP, dCTP and dTTP, 0.5 mM dATP, 12 mM MgCl2 and Taq polymerase. The PCR product was Ncol-EcoRI doubly digested, cloned into the pGBKT7 vector and DH10B cells were transformed by electroporation. Thus, we generated an allele library in E. coli of approximately 10,000 PYL4 mutant clones. […] The library was shuttled to yeast AH109 by co-transformation with pGAD7-PP2CA. Yeast transformants were pooled and clones able to grow in the absence of exogenous ABA in medium lacking histidine and adenine were selected. Yeast plasmids were extracted, sequenced and retransformed in yeast cells to recapitulate the phenotype. Protocols for yeast two hybrid assays were similar to those described previously (Saez et al., 2008).
# [4] = system: Arabidopsis thaliana plants; assay: Stomatal aperture by whole leaf imaging; format: in vivo; conditions: OE plants; steady-state conditions
# Method: as §1
# [5] = system: Arabidopsis thaliana plants; assay: Seedling establishment and early seedling growth of OE lines on ABA; format: in vivo; conditions: for ABA-mediated inhibition of seedling establishment: 0.25 or 0.5 μM ABA; for ABA-mediated inhibition of shoot growth (early seedling growth): 0.25-0.5 μM ABA
# From the text: PYL4 or PYL4 mutants were cloned into pCR8/GW/TOPO entry vector (Invitrogen) and recombined by LR reaction into the gateway compatible ALLIGATOR2 vector (Bensmihen et al., 2004). This construct drives expression of PYL4 under control of the 35S CaMV promoter and introduces a triple HA epitope at the N-terminus of the protein. Selection of transgenic lines is based on the visualization of GFP in seeds, whose expression is driven by the specific seed promoter At2S3. The ALLIGATOR2-35S:3HA-PYL4 or mutant constructs were transferred to Agrobacterium tumefaciens C58C1 (pGV2260) (Deblaere et al., 1985) by electroporation and used to transform Columbia wild type plants by the floral dip method. T1 transgenic seeds were selected based on GFP visualization and sowed in soil to obtain the T2 generation. At least three independent transgenic lines were generated for each construct. Homozygous T3 progeny was used for further studies and expression of HA-tagged protein in 21-d-old seedlings was verified by immunoblot analysis using anti-HA-peroxidase (Roche).
# After surface sterilization of the seeds, stratification was conducted in the dark at 4° C. for 3 d. Approximately 100 seeds of each genotype were sowed on MS plates supplemented with different ABA concentrations per experiment. To score seed germination, radical emergence was analyzed at 72 h after sowing. Seedling establishment was scored as the percentage of seeds that developed green expanded cotyledons and the first pair of true leaves at 7-d.
# [6] = system: Arabidopsis thaliana plants; assay: Dehydration treatment of seedlings in laminar flow hood; format: in vivo; conditions: OE plants; 15-d-old seedlings, 12 h of dehydration, scored 3-d afterwards
# Method: 2-weeks-old seedlings grown in MS plates were used for these experiments. Twenty seedlings per genotype (two independent experiments) were submitted to the drying atmosphere of a flow laminar hood for 12 hours (25° C.±1° C., 25%±2% relative humidity), then rehydrated with 25 ml of water. Survival percentage was scored 3 days after rehydration by counting the percentage of plants that had at least four green leaves.
Molecule,localization of interaction with PP2CA (PP2CA [1]),water loss under drought stress [2],interaction with PP2CA in Y2H assay (PP2CA [3]),stomatal aperture [4],ABA-mediated inhibition of seedling establishment [5],survival after dehydration followed by rehydration [6],ABA-mediated inhibition of shoot growth (early seedling growth) [5],"water-loss kinetics ([2]; 15-d-old seedlings, drying atmosphere of a laminar flow hood)"
"PYL4: AtPYL4 wild type ABA receptor polypeptide (SEQ ID NO:3, At2g38310) [reference compound]",localized mostly to the nucleus,reduced water loss compared to non-transformed plants,ABA-dependent manner,more closed than those of non-transformed Col plants,enhanced ABA-mediated inhibition of seedling establishment compared to non-transformed plants,–,–,–
B1,–,–,ABA-independent interaction with PP2CA,–,higher sensitivity to ABA-mediated inhibition of seedling establishment than PYL4 OE plants,~25%,higher sensitivity to ABA-mediated inhibition of shoot growth than PYL4 OE plants,–
B2,relatively much more abundant in the cytosol compared to PYL4,reduced water loss compared to non-transformed Col and PYL4 OE plants,enhanced the interaction of PYL4 and PP2CA in the absence of ABA,more closed than those of non-transformed Col plants,higher sensitivity to ABA-mediated inhibition of seedling establishment than PYL4 OE plants,approximately 40%,higher sensitivity to ABA-mediated inhibition of shoot growth than PYL4 OE plants,lost less water than non-transformed or PYL4 OE lines
